According to article PMC5719408, “Multivalent cross-linking of actin filaments and microtubules through the microtubule-associated protein Tau” (Nature Communications, 2017):

Target: NBD-conjugated actin from α-skeletal muscle (F-actin) (UniProt P68135)
Test: NBD-F-actin fluorescence titration
Details: reference: unphosphorylated Tau(254–284) peptide; sites S262

Tau (2N4R) 254-284 (from UniProt P10636-8) pS262 Tau(254–284) peptide
binding against the reference: weaker
